Reference: patent US5516678

Test system: SspI restriction endonuclease (native) (Sphaerotilus sp. ATCC 13925)
Test: cleavage_in_vitro
Details: Mono S fractions, homogeneous; lambda DNA assay stated in D-7

Q: With phage lambda DNA as the substance, how does the activity read?
A: 140000 units/mg
